Paper PMC7241850

Assays:
[1] = target: HIV-1 Env E1 R563Q (HIV-1 (clade B, individual 653116))
[2] = target: HIV-1 Env NE1 Q563R (HIV-1 (clade B, individual 653116))

## HIV-1 IIIB C34 Peptide
[1]
  IC50 of inhibition of infection of TZM-bl cells by pseudovirus (luciferase): 0.6 µg/mL
[2]
  IC50 of inhibition of infection of TZM-bl cells by pseudovirus (luciferase): 0.04 µg/mL
